Our source for the Kd, Classification and % binding of labelled 20-mer values is patent publication US20050282743A1, “Molecular interactions in cells” (Arbor Vita Corporation, priority 2001, published 2005).

The target of assay [1] is T1, GST-KIAA1634 PDZ domain 2 (Homo sapiens (Human)), Q5TCQ9.
T1 chain: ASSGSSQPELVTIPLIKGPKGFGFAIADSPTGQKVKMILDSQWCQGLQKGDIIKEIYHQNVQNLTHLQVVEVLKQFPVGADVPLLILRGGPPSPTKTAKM
The assay is described as follows: G assay titration, PDZ 5 ug/ml.

The target in assay [2] is T2, GST-PTPL1 PDZ domain 2 (Homo sapiens (Human)), Q12923.
T2 chain: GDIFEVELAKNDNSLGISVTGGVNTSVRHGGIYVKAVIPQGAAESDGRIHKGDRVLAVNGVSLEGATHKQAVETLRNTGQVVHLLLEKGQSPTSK
Put plainly: G assay titration, PDZ 5 ug/ml.

Assay [3] has as its target T1, GST-KIAA1634 PDZ domain 2 (Homo sapiens …). Put plainly: G' assay. Also: key of the grades not given here.
The target of assay [4] is T2, GST-PTPL1 PDZ domain 2 (Homo sapiens …). The assay is described as follows: G' assay. Also: key of the grades not given here.
In assay [5] the target is GST-PSD95 PDZ domains 1, 2, 3 (Homo sapiens), P78352. The assay is described as follows: G assay competition vs 20 uM biotin-CD46 20-mer; competitor 100 uM.
Assay [6] has the same target. Put plainly: G assay competition vs 10 uM biotin-KV1.3 20-mer; competitor 100 uM.
Assay [7] has the same target. The assay is described as follows: G assay competition vs 20 uM biotin-CLASP-2 20-mer; competitor 100 uM.
Assay [8] shares this target. The assay is described as follows: G assay competition vs 10 uM biotin-CD95 20-mer; competitor 100 uM.
The target in assay [9] is T3, GST-MINT1 PDZ domains 1, 2, Q02410.
T3 chain: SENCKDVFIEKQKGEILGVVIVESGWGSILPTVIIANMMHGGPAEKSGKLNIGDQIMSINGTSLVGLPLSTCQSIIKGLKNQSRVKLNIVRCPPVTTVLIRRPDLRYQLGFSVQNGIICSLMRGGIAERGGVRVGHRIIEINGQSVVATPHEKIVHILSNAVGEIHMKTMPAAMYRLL
The assay is described as follows: G assay titration, PDZ 2 ug/ml.

For assay [10], the target named is T4, GST-MUPP1 PDZ domain 7 (Homo sapiens (Human)), O75970.
T4 chain: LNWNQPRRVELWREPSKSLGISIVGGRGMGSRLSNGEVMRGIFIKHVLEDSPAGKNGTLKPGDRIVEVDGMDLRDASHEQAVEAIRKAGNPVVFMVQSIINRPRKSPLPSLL
Put plainly: G assay titration, PDZ 5 ug/ml.

The target of assay [11] is T5, GST-PTPL1 PDZ domain 4 (Homo sapiens (Human)), Q12923.
T5 chain: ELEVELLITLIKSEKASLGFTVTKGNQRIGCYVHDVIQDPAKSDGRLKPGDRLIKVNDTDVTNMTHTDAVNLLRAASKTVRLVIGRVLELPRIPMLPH
The assay is described as follows: G assay titration, PDZ 3 ug/ml.

Assay [12] addresses T6, GST-HEMBA 1003117 PDZ domain 1 (Homo sapiens (Human)), Q96JH8.
T6 chain: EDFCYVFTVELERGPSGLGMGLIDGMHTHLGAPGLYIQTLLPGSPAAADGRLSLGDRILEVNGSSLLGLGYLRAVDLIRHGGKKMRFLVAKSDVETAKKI
The assay is described as follows: G assay titration, PDZ 0.5 ug/ml.

For assay [13], the target named is GST-PAR3 PDZ domain 3 (Homo sapiens (Human)), Q8TEW0. Put plainly: G assay titration, PDZ 0.5 ug/ml.
In assay [14] the target is T7, GST-FLJ 10324 PDZ domain 1 [GST: P08515].
T7 chain: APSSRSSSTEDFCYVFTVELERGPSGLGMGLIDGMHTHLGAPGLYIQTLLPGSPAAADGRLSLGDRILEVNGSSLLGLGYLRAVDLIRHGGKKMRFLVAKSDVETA
The assay is described as follows: G' assay. Also: key of the grades not given here.

Assay [15] deals with T8, GST-MUPP1 PDZ domain 3 (Homo sapiens (Human)), O75970.
T8 chain: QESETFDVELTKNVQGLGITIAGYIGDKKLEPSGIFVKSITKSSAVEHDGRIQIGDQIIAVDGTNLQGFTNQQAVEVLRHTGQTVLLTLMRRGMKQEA
The assay is described as follows: G' assay. Also: key of the grades not given here.

Assay [16] addresses T9, GST-NOS1 PDZ domain 1 (Homo sapiens (Human)), P29475.
T9 chain: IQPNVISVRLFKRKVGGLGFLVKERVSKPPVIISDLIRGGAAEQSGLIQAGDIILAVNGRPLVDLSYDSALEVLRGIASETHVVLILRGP
The assay is described as follows: G' assay. Also: key of the grades not given here.

Assay [17] addresses T10, GST-KIAA0561 PDZ domain 1 (Homo sapiens (Human)), O60307.
T10 chain: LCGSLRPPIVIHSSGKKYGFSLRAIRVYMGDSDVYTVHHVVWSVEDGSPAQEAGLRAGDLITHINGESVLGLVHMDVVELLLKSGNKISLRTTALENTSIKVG
The assay is described as follows: G' assay. Also: key of the grades not given here.

Assay [18] deals with T11, GST-MUPP1 PDZ domain 9 (Homo sapiens (Human)), O75970.
T11 chain: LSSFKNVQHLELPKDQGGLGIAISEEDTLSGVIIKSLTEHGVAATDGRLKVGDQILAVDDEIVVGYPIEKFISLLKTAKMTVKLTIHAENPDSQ
Put plainly: G' assay.

In assay [19] the target is T12, GST-ZO-1 PDZ domain 1 (Rattus norvegicus (Rat)), A0A0G2.
T12 chain: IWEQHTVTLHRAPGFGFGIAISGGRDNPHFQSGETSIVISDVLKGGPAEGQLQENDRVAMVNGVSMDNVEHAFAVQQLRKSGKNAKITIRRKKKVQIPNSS
The assay is described as follows: G' assay.

For assay [20], the target named is T13, GST-KIAA0807(S) PDZ domain 1 (Homo sapiens (Human)), Q6P0Q8.
T13 chain: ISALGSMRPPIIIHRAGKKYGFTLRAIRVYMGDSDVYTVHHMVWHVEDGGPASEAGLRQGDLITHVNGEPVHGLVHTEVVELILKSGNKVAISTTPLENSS
Put plainly: G' assay.

In assay [21] the target is T14, GST-AIPC PDZ domain 1 (Homo sapiens (Human)), O15018.
T14 chain: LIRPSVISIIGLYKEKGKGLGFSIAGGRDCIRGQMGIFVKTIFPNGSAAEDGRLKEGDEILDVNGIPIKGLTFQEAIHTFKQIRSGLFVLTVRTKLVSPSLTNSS
Put plainly: G' assay.

Assay [22] deals with T15, GST-KIAA0751(L) PDZ domain 1 (Mus musculus (Mouse)), Q9EQZ7.
T15 chain: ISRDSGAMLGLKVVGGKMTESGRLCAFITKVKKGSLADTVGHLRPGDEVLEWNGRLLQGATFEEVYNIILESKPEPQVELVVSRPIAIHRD
The assay is described as follows: G' assay.

Assay [23] has as its target T6, GST-HEMBA 1003117 PDZ domain 1 (Homo …). The assay is described as follows: G' assay.
Assay [24] addresses T16, GST-INADL PDZ domain 3 (Homo sapiens (Human)), Q8NI35.
T16 chain: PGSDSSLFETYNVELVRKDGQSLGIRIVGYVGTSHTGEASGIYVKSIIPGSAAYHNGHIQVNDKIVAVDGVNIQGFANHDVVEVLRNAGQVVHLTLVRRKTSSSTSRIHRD
Put plainly: G' assay.

Assay [25] deals with GST-Atrophin-1 Interacting Protein PDZ domain 5 (Rattus norvegicus (Rat)), O88382. Put plainly: G' assay. Also: key of the grades not given here.
In assay [26] the target is T17, GST-AF6 PDZ domain 1 (Homo sapiens (Human)), P55196.
T17 chain: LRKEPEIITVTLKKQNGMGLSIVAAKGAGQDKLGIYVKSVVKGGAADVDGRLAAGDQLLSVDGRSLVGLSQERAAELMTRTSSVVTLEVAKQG
Put plainly: G' assay.

Assay [27] has as its target T18, GST-DVL2 PDZ domain 1 (Homo sapiens (Human)), O14641.
T18 chain: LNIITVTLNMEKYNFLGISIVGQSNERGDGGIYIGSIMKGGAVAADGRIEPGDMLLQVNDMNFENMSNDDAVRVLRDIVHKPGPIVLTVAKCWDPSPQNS
The assay is described as follows: G' assay.

Assay [28] deals with T19, GST-AIPC PDZ domain 4 (Homo sapiens (Human)), O15018.
T19 chain: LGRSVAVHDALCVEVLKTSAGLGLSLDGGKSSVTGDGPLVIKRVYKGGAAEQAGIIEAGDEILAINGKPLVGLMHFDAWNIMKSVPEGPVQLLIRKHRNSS
Put plainly: G' assay.

The target in assay [29] is T5, GST-PTPL1 PDZ domain 4 (Homo sapiens …). Put plainly: G' assay.
The target in assay [30] is T3, GST-MINT1 PDZ domains 1, 2, Q02410. The assay is described as follows: G' assay.
For assay [31], the target named is T4, GST-MUPP1 PDZ domain 7 (Homo sapiens …). Put plainly: G' assay.
In assay [32] the target is GST-PAR3 PDZ domain 3 (Homo sapiens (Human)), Q8TEW0. Put plainly: G' assay. Also: key of the grades not given here.
Assay [33] deals with T7, GST-FLJ 10324 PDZ domain 1 [GST: P08515]. Put plainly: G assay titration, PDZ 1 ug/ml.

Chain of GST-PSD95 PDZ domains 1, 2, 3 (Homo sapiens), P78352 (P78352 62-395): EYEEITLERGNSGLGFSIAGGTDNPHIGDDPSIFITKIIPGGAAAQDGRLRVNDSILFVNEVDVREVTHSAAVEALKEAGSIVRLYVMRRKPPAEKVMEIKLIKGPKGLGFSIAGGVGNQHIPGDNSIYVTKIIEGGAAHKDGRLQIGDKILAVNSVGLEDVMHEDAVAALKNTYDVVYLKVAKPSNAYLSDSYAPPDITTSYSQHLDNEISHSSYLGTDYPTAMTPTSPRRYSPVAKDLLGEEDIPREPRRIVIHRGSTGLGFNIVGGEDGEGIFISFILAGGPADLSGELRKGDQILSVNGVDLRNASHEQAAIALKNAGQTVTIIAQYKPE
Chain of GST-PAR3 PDZ domain 3 (Homo sapiens (Human)), Q8TEW0 (Q8TEW0 579-681): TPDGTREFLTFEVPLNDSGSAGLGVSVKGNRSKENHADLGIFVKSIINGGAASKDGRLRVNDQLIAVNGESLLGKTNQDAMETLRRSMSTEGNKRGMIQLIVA
Chain of GST-Atrophin-1 Interacting Protein PDZ domain 5 (Rattus norvegicus (Rat)), O88382 (O88382 1128-1225): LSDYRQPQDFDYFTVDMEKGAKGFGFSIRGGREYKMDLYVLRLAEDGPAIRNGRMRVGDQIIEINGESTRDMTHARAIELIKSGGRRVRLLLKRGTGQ

B1: ActRIIA (peptide)
peptide: IVTVVTMVTNVDFPPKESSL
modifications: not checked
B1: the dissociation constant (Kd) in [1] and in assay [2] was 5 µM throughout. In addition, the figures for the Classification in [3] and in assay [4] were 2 A450 class and 3 A450 class, respectively.

B2: CD46 8-mer (peptide)
peptide: REVKFTSL
modifications: not checked
With B2, the % binding of labelled 20-mer amounted to 95% in assay [5], 71% in assay [6], 81% in [7] and 65% in assay [8].

B3: presenilin-2 (peptide)
peptide: STDNLVRPFMDTLASHQLYI
modifications: not checked
B3: the Kd in [9] stood at 6 µM; in [10], 4 µM; in assay [11] it was 8 µM; in assay [12], 4 µM; in assay [13] it was 2000 nM; in assay [33] it was 1000 nM. For the same molecule, the Classification amounted to 5 A450 class in assay [14]; 3 A450 class in assay [15]; 1 A450 class in assay [16]; 1 A450 class in assay [17]; 3 A450 class in [18]; 1 A450 class in assay [19]. The Classification was found to be 1 A450 class in assay [20]; 1 A450 class in assay [21]; 1 A450 class in [22]; 4 A450 class in [23]; 1 A450 class in assay [24]; 1 A450 class in assay [25]. Besides, the Classification amounted to 3 A450 class in assay [26]; 1 A450 class in assay [27]; 1 A450 class in [28]; 2 A450 class in assay [29]; 3 A450 class in [30]; 2 A450 class in [31]. The same molecule yielded a Classification in assay [32] of 5 A450 class.

One may read the Kd as a measure of binding affinity in units of concentration.
